T1: His10/Avi Human IL33-01 (human)
T1 chain: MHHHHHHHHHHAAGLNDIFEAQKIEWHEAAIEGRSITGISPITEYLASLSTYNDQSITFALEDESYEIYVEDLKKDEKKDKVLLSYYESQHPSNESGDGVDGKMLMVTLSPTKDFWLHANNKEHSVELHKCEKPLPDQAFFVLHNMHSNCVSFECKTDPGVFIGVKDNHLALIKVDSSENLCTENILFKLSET

T2: Full-length human IL-33 (amino acids 1-270), HEK293-EBNA cell lysate (human, UniProt O95760 1-270)
T2 sequence (looked up): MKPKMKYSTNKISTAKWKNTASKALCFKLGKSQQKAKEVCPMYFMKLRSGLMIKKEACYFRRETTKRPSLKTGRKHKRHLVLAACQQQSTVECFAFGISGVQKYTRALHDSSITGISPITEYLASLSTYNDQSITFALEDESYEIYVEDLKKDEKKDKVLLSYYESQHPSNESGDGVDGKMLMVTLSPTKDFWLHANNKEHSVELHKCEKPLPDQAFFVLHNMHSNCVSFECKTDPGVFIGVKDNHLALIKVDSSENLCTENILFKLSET

T3: His10/Avi Cyno IL-33 (cynomolgus monkey)
T3 construct: also called Cynomolgus 10His Avitag IL-33; biotinylated His Avi cynomolgus IL-33
T3 chain: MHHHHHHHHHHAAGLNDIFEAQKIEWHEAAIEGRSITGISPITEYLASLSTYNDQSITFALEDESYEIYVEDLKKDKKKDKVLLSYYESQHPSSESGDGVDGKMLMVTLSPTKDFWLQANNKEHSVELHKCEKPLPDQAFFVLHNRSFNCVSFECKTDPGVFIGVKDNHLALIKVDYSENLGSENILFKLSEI

T4: Human IL-33 Flag®His (human)
T4 chain: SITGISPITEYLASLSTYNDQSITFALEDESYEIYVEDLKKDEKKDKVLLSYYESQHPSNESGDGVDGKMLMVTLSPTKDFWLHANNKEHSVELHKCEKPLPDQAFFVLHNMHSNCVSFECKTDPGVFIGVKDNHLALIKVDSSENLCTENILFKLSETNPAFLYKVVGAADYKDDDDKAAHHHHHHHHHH


Key:
His10/Avi Human IL33-01 [1] = target: T1, His10/Avi Human IL33-01; test: cell-based or functional assay
His10/Avi Human IL33-01 [2] = target: T1, His10/Avi Human IL33-01; test: cell-based or functional assay
[3] = target: T2, Full-length human IL-33 (amino acids …); test: cell-based or functional assay
His10/Avi Human IL33-01 [4] = target: T1, His10/Avi Human IL33-01; test: HTRF epitope competition, IgG titrated; competitor DyLight labelled 33_640117 IgG; 1 hour
Experimental: (§1) As the epitope competition assay utilising 33_640027 reached its limit of sensitivity, an assay using 33_640117 was used for testing purified scFv samples. The assay was essentially as described for the 33v20064 competition assay with the following modifications: 2.5 nM DyLight labelled 33_640117 was prepared and 2.5 microlitres added to the assay plates. This was followed by the addition of 2.5 microlitres of a solution containing 0.12 nM biotinylated human IL-33-01 combined with 0.75 nM streptavidin cryptate detection (Cisbio International, 610SAKLB) for the human assay or a solution containing 0.24 nM biotinylated cynomolgus IL-33 combined with 1.5 nM streptavidin cryptate detection (Cisbio International, 610SAKLB) for the cynomolgus assay. Fluorescence was read after one hour and overnight incubation.
(§2) The ability of anti-IL-33 antibodies to inhibit the binding of biotinylated His Avi human IL-33 or cynomolgus His Avi IL-33 to the DyLight labelled 33_640117 IgG was assessed in a biochemical HTRF® (Homogeneous Time-Resolved Fluorescence, Cisbio International) competition assays as described above.

His10/Avi Cyno IL-33 = target: T3, His10/Avi Cyno IL-33; test: as above
Experimental: as §1, §2

His10/Avi Human IL33-01 [5] = target: T1, His10/Avi Human IL33-01; test: HTRF epitope competition, IgG titrated; competitor DyLight labelled 33_640117 IgG; overnight
Experimental: as §1, §2

Human IL-33 Flag®His [6] = target: T4, Human IL-33 Flag®His; test: cell-based or functional assay
Human IL-33 Flag®His [7] = target: T4, Human IL-33 Flag®His; test: HTRF competition, IgG titrated against biotinylated human ST2-Fc
Experimental: The ability of anti-IL-33 antibodies to inhibit the binding of FLAG®-His tagged IL-33 to the ST2 receptor was assessed in a biochemical HTRF® (Homogeneous Time-Resolved Fluorescence, Cisbio International) competition assay, the principles of which are described above.
Activity of purified IgG preparations were determined by competing a dilution series of the purified IgG against biotinylated human or mouse ST2.Fc for binding to FLAG® His-tagged human, cynomolgus or mouse IL-33.
Purified or unpurified anti-IL-33 antibody samples were tested for inhibition of FLAG®-His tagged IL-33 binding ST2-Fc by adding 10 microlitres of each dilution of antibody test sample to a 384 well low volume assay plate (Costar 3676). Next, a solution containing 4 nM biotinylated human or mouse ST2-Fc and 20 nM streptavidin XL665 detection (Cisbio International, 611SAXLB) was prepared and 5 microlitres of the mix added to the assay plate. This was followed by the addition of 5 microlitres of a solution containing 1.2 nM FLAG®-His tagged human, cynomolgus or mouse IL-33 combined with 1.72 nM anti-FLAG® cryptate detection (Cisbio International, 61FG2KLB). All dilutions were performed in assay buffer comprised of Dulbeccos PBS (Invitrogen, 14190185) containing 0.8 M potassium fluoride (BDH 103444T) and 0.1% BSA (Sigma A9576). Assay plates were incubated for 2 hour at room temperature followed by 16 hour at 4° C. before reading time resolved fluorescence at 620 nm and 665 nm emission wavelengths using an EnVision plate reader (Perkin Elmer).

IC50 (nM) vs. His Avi IL-33, Huvec IL-8 assay (His10/Avi Human IL33-01 [1]) [nM] | IC50, Huvec IL-8 assay vs. His Avi IL-33 (His10/Avi Human IL33-01 [2]) [nM] | IC50, Huvec IL-8 assay vs. full length IL-33 cell lysate [3] [nM] | IC50 (His10/Avi Human IL33-01 [4]) [nM] | IC50 (His10/Avi Cyno IL-33) [nM] | IC50 (His10/Avi Human IL33-01 [5]) [nM] | IC50, human ST2 transfected HeLa NFkB luciferase reporter assay (Human IL-33 Flag®His [6]) [nM] | IC50 (Human IL-33 Flag®His [7]) [nM] | Binder
0.105 |  |  |  |  |  |  |  | 33_640237-2 IgG1 (antibody, V domains shown) VH: EVQLLESGGGLVQPGGSLRLSCAASGFTFSSYAMSWVRQAPGKGLEWVSGIADDFTSTYYADPVKGRFTISRDNSKNTLYLQMNSLRAEDTAVYYCARDLWMMNYAGGLRYPFGYWGQGTMVTVSS VL: SYVLTQPPSVSVSPGQTASITCSGERMGDKYAAWYQQKPGQSPVLVIYRDTKRPSGIPERFSGSNSGNTATLTISGTQAMDEADYYCGVLKQDTGVFGGGTKVTVL
 | 0.032 | 0.095 | 0.1 | 0.6 | 0.1 |  |  | 33_640076-4 IgG1 (antibody, V domains shown, IgG1) VH: EVQLLESGGGLVQPGGSLRLSCAASGFTFSSYAMSWVRQAPGKGLEWVSGISAIDQSTYYADSVKGRFTISRDNSKNTLYLQMNSLRAEDTAVYYCARDLWMENWVGGLRYPFGYWGQGTMVTVSS VL: SYVLTQPPSVSVSPGQTASITCSGERMGDKYAAWYQQKPGQSPVLVIYRDTKRPSGIPERFSGSNSGNTATLTISGTQAMDEADYYCEVKKSDTGVFGGGTKVTVL
 | 0.046 | 0.101 | 0.2 | 0.3 | 0.2 |  |  | 33_640201 IgG1 (antibody, V domains shown, IgG1; also called ZZ1JMY-H09) VH: EVQLLESGGGLVQPGGSLRLSCAASGFTFSSYAMSWVRQAPGKGLEWVSSIDAISSSTYYADSVKGRFTISRDNSKNTLYLQMNSLRAEDTAVYYCSRQKFMQLWGGGLRYPFGYWGQGTMVTVSS VL: SYVLTQPPSVSVSPGQTASITCSGERMGDKYAAWYQQKPGQSPVLVIYQDTKRPSGIPERFSGSNSGNTATLTISGTQAVDEADYYCGVLKQDTGVFGGGTKVTVL
0.041 | 0.025 | 0.073 | 0.1 | 0.2 | 0.1 |  |  | 33_640087-7 IgG1 (antibody, V domains shown, IgG1) VH: EVQLLESGGGLVQPGGSLRLSCAASGFTFSSYAMSWVRQAPGKGLEWVSGISAIDQSTYYADSVKGRFTISRDNSKNTLYLQMNSLRAEDTAVYYCARQKFMQLWGGGLRYPFGYWGQGTMVTVSS VL: SYVLTQPPSVSVSPGQTASITCSGEGMGDKYAAWYQQKPGQSPVLVIYRDTKRPSGIPERFSGSNSGNTATLTISGTQAMDEADYYCGVIQDNTGVFGGGTKVTVL
 | 0.026 | 0.081 | 0.1 | 0.2 | 0.1 |  |  | 33_640086-6 IgG1 (antibody, V domains shown, IgG1) VH: EVQLLESGGGLVQPGGSLRLSCAASGFTFSSYAMSWVRQAPGKGLEWVSGISGIDTSTYYADSVKGRFTISRDNSKNTLYLQMNSLRAEDTAVYYCARDKFMQLWGGGLRYPFGYWGQGTMVTVSS VL: SYVLTQPPSVSVSPGQTASITCSGERMGDKYAAWYQQKPGQSPVLVIYRDTKRPSGIPERFSGSNSGNTATLTISGTQAMDEADYYCEVKVKDTGVFGGGTKVTVL
 | 0.036 | 0.132 | 0.3 | 0.8 | 0.3 |  |  | 33_640084-2 IgG1 (antibody, V domains shown, IgG1) VH: EVQLLESGGGLVQPGGSLRLSCAASGFAFSSYAMSWVRQAPGKGLEWVSAISGSGGSTYYADSVKGRFTISRDNSKNTLYLQMNSLRAEDTAVYYCARQKFMQLWGGGLRYPFGYWGQGTMVTVSS VL: SYVLTQPPSVSVSPGQTASITCSGERMGDKYAAWYQQKPGQSPVLVIYRDTKRPSGIPERFSGSNSGNTATLTISGTQAMDEADYYCQVWRDDSPIFGGGTKVTVL
 | 0.031 | 0.095 | 0.1 | 0.2 | 0.1 |  |  | 33_640082-7 IgG1 (antibody, V domains shown, IgG1) VH: EVQLLESGGGLVQPGGSLRLSCAASGFTFSSYAMSWVRQAPGKGLEWVSGISAIDQSTYYADSVKGRFTISRDNSKNTLYLQMNSLRAEDTAVYYCARQKFMQLWGGGLRYPFGYWGQGTMVTVSS VL: SYVLTQPPSVSVSPGQTASITCSGERMGDKYAAWYQQKPGQSPVLVIYRDTKRPSGIPERFSGSNSGNTATLTISGTQAMDEADYYCGVLKQDTGVFGGGTKVTVL
 |  |  |  |  |  | 147 | 40 | IL330020 IgG1 (antibody, V domains shown, Human IgG1, lambda constant) VH: QVQLVQSGAEVKKPGASVKVSCKASGYTFTSYGISWVRQAPGQGLEWMGWISDYQGYTKYAEKFQGRVTMTTDTSTNTAYMELRSLRSDDTAVYYCARLYSSGWIRQYHFDYWGRGTLVTVSS VL: SYELTQPPSVSVSPGQTASITCSGDNLKDKYVSWYQQKPGQAPVLVLYQDRKRPSGIPERFSGSNSGNTATLTISGTQAMDEADYYCQAWDSGTAFGGGTKVTVL

— patent US20200353078A1 (AstraZeneca / MedImmune, published 2020)
